The results in this text go back to patent US20220195067A1 (LAMKAP BIO BETA, published 2022).

In experiment [1] the target is T1, human CEACAM5 on CEACAM5-expressing cancer cell lines (human, UniProt P06731 35-685).
T1 construct: whole, on cells; also called CEACAM5 on SK-CO-1, MKN-45, HPAF-II, SNU-C1, Ls174T, LoVo cells
T1 sequence (looked up): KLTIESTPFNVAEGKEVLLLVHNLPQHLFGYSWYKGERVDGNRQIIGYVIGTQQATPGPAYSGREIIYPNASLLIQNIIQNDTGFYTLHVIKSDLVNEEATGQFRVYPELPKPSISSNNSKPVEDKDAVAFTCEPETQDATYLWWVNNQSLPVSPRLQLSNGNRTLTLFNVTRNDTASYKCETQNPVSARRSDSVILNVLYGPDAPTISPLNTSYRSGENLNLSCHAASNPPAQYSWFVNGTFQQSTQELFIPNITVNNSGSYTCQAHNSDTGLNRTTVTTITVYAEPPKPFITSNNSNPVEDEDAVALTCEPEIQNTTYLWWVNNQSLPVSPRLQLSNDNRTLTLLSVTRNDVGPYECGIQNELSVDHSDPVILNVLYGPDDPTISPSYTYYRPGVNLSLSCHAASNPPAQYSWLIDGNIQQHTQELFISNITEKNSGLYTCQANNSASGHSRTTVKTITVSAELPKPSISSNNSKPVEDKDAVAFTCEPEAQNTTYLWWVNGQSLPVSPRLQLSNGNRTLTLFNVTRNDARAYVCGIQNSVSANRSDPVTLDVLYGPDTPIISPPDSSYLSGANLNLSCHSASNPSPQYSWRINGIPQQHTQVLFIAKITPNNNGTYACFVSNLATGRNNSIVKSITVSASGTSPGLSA
Put plainly: flow cytometry on HPAF-II cells (carry CEACAM5 and CD47), PE anti-human IgG Fc. Here is the method:
(§1) The binding of CD47×CEACAM5 bispecific antibodies was tested on CEACAM5-expressing human gastric adenocarcinoma cells (e.g. MKN-45), on CEACAM5-expressing human colorectal cancer cells (SK-CO-1, SNU-C1, Ls174T, and LoVo), and on CEACAM5-expressing pancreatic adenocarcinoma cells (HPAF-II).
(§2) Cells were harvested, counted, checked for viability and resuspended at 3×10⁶ cells/ml in FACS buffer (PBS 2% BSA, 0.1% NaN3). 100 μl of the cell suspension was distributed in V-bottom 96-well plates (3×10⁵ cells/well). The supernatant was removed by centrifugation 3 minutes at 4° C., 1300 rpm. Increasing concentrations of the antibody according to the invention were then added into the wells and incubated for 15 minutes at 4° C. Cells were washed twice with cold FACS buffer and re-incubated for further 15 minutes at 4° C. with the PE (R-phycoerythrin)-conjugated mouse anti-human IgG Fc secondary antibody (SouthernBiotech, pre-diluted 1:100 in FACS buffer). Cells were washed twice with cold FACS buffer and resuspended in 300 μl FACS buffer with 1:15000-diluted SytoxBlue (Life Technologies). Fluorescence, specifically mean fluorescence […] (MFI), was determined using a Cytoflex […] flow cytometer. Binding curves and […] and Emax values were obtained and calculated using GraphPad Prism7 software.

In experiment [2] the target is T2, human CD47 expressed at the surface of MKN-45 cells (human, UniProt Q08722 19-323).
T2 construct: whole, on cells; MKN-45 cells express both CD47 and CEACAM5; also called hCD47
T2 sequence (Q08722 19-323): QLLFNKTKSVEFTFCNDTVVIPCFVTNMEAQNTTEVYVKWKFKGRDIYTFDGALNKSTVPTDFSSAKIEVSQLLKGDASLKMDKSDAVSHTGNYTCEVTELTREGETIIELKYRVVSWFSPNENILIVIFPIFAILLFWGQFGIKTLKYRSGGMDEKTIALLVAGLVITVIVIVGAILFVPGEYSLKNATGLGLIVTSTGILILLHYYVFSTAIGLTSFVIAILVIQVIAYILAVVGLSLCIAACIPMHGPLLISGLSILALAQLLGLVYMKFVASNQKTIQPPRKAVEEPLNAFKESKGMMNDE
Nature of the experiment: CD47/SIRPα blocking assay on MKN-45 cells (carry CD47 and CEACAM5), imaging of bound SIRPα-mouseFc. The text has this:
The cell-based assay monitoring the interaction of soluble SIRPa with human CD47 expressed at the surface of MKN-45 cells as described below was used for the detection of the blocking activity. Concentration-response experiments with bispecific antibodies according to the invention allowed determination of inhibition curves (see FIG. 4) and of IC50 values (see Table 12).
MKN-45 cancer cells, expressing both CD47 and CEACAM5, were stained with CFSE violet to allow the imaging system (CX5) to detect the cells. Briefly, 3'000 stained MKN-45 cells per well were seeded in a 384 optical well plate (Costar) and incubated for 50 minutes with increased concentrations of bispecific antibodies of the invention ([…] to 333 nM, in quadruplicates). Then, a fixed concentration of SIRPα-mouseFc premixed with anti-mouse IgG-Fc AF647 coupled antibody (Jackson Immunoresearch diluted 1:2000) was added at 50 ng/mL final. After an incubation of 3 hours and 30 minutes, images of the fluorescence signals emitted by the detected bound SIRPa on the plates were acquired with the imaging system (CX5, Thermo Fisher). Fluorescence signals (mean fluorescence intensity MFI) were plotted according to the dose range tested, and IC50 was calculated by the software (Prism, GraphPad).

The target of experiment [3] is T1, human CEACAM5 on CEACAM5-expressing …. Put plainly: flow cytometry on LoVo cells (carry CEACAM5 and CD47), PE anti-human IgG Fc. How it is done: as §1, §2
Experiment [4] has the same target. Put plainly: flow cytometry on MKN-45 cells (carry CEACAM5 and CD47), PE anti-human IgG Fc. Here is the method:
as §1, §2

The target is the same in experiment [5]. Nature of the experiment: flow cytometry on SNU-C1 cells (carry CEACAM5 and CD47), PE anti-human IgG Fc. Here is the method: as §1, §2
Experiment [6] shares this target. Put plainly: flow cytometry on Ls174T cells (carry CEACAM5 and CD47), PE anti-human IgG Fc. How it is done:
as §1, §2

Experiment [7] shares this target. Nature of the experiment: flow cytometry on SK-CO-1 cells (carry CEACAM5 and CD47), PE anti-human IgG Fc. Here is the method: as §1, §2

B1: K2AC82 (bispecific antibody, human IgG1, kappa, lambda)
heavy: not shown
light 1: QSVLTQPPSVSAAPGQKVTISCSGSSSNIGYGLVSWYQQLPGTAPKLLIYGINKRPSGIPDRFSGSKSGTSATLGITGLQTGDEADYYCGTWDFSYRVDFGGGTKLTVLGQPKAAPSVTLFPPSSEELQANKATLVCLISDFYPGAVTVAWKADSSPVKAGVETTTPSKQSNNKYAASSYLSLTPEQWKSHRSYSCQVTHEGSTVEKTVAPTECS
light 2: not shown
notes: Kappa-lambda body; also called CD47xCEACAM5 bispecific antibody K2AC82; AC82 (CEACAM5 arm)
As for B1, the EC50 stood at 11.3 nM in experiment [1]; 22 nM in experiment [3]; 10 nM in experiment [4]; 4.4 nM in experiment [5]; 11.3 nM in experiment [6]; 17.3 nM in experiment [7]. In addition, the “Emax (MFI)” value in experiment [1] was 940000 MFI; in experiment [3], 260000 MFI; in experiment [4], 1.18e+06 MFI; in experiment [5], 280000 MFI; in experiment [6], 77000 MFI; in experiment [7] it was 900000 MFI. Further, the IC50 in experiment [2] was determined as 0.07 nM.

B2: K2AC117 (bispecific antibody, human IgG1, kappa, lambda)
heavy: not shown
light 1: QSVLTQPPSVSAAPGQKVTISCSGSSSNIGIGLVSWYQQLPGTAPKLLIYNGNVRPSGIPDRFSGSKSGTSATLGITGLQTGDEADYYCGTWDFSYRVDFGGGTKLTVLGQPKAAPSVTLFPPSSEELQANKATLVCLISDFYPGAVTVAWKADSSPVKAGVETTTPSKQSNNKYAASSYLSLTPEQWKSHRSYSCQVTHEGSTVEKTVAPTECS
light 2: not shown
notes: Kappa-lambda body; also called CD47xCEACAM5 bispecific antibody K2AC117; AC117 (CEACAM5 arm)
As to B2, the concentration giving a half-maximal response (EC50) stood at 7.3 nM in experiment [1]; 20 nM in experiment [3]; 8 nM in experiment [4]; 3.13 nM in experiment [5]; 6.7 nM in experiment [6]; 14.7 nM in experiment [7]. Also, the “Emax (MFI)” value amounted to 1.2e+06 MFI in experiment [1]; 320000 MFI in experiment [3]; 1.35e+06 MFI in experiment [4]; 370000 MFI in experiment [5]; 70000 MFI in experiment [6]; 1.1e+06 MFI in experiment [7]. The IC50 in experiment [2] worked out at 0.08 nM.

B3: K2AC91 (bispecific antibody, human IgG1, kappa, lambda)
heavy: not shown
light 1: QSVLTQPPSVSAAPGQKVTISCSGSSSNIGIGLVSWYQQLPGTAPKLLIYTVNNRPSGIPDRFSGSKSGTSATLGITGLQTGDEADYYCGTFDFSYGIVFGGGTKLTVLGQPKAAPSVTLFPPSSEELQANKATLVCLISDFYPGAVTVAWKADSSPVKAGVETTTPSKQSNNKYAASSYLSLTPEQWKSHRSYSCQVTHEGSTVEKTVAPTECS
light 2: not shown
notes: Kappa-lambda body; also called CD47xCEACAM5 bispecific antibody K2AC91; AC91 (CEACAM5 arm)
B3: the 50% inhibitory concentration (IC50) in experiment [2] stood at 0.05 nM. The EC50 in experiment [3] is 16 nM; in experiment [4], 8 nM; in experiment [5], 2.53 nM; in experiment [6], 6 nM; in experiment [7], 12.7 nM. Moreover, the “Emax (MFI)” value amounted to 380000 MFI in experiment [3]; 1.64e+06 MFI in experiment [4]; 400000 MFI in experiment [5]; 100000 MFI in experiment [6]; 1.3e+06 MFI in experiment [7].
